Data published in patent US20220289795, “EFFICIENT METHOD FOR PREPARING PPR PROTEIN AND USE OF THE SAME” (EditForce, Inc., published 2022).

Key:
Test in all cases: ELONA; RPB-ELISA
NL_v2_PPR15 = biological target: T1, NL_v2_PPR15 (Artificial Sequence); conditions: tags: N-term luciferase, C-term 6xHis; label: 5'-biotin
T1 chain: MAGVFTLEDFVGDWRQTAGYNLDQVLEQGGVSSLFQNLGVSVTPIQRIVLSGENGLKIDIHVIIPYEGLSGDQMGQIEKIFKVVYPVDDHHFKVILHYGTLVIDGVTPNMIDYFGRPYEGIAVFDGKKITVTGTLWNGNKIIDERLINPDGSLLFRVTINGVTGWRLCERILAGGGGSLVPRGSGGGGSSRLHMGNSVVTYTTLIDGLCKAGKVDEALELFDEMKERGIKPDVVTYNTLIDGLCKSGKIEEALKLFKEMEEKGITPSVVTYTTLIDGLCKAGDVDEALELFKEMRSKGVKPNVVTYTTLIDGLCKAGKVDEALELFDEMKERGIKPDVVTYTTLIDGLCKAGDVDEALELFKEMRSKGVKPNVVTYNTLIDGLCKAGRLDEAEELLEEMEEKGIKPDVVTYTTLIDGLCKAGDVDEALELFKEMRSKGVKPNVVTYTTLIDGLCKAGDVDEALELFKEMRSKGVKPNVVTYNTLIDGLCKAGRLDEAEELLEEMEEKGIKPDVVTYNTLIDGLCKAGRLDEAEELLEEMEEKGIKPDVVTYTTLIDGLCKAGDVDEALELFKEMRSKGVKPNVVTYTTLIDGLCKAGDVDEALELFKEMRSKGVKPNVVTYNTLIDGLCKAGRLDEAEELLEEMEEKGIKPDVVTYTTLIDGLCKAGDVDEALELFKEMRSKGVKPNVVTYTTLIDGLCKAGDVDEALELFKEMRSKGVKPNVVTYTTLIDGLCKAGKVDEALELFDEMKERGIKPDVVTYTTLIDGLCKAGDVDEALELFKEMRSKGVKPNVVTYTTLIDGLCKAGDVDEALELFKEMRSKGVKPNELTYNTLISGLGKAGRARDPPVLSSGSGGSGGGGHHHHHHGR

v3.1_PPR15 = biological target: T2, v3.1_PPR15 (Artificial Sequence); conditions: tags: luciferase fusion; label: 5'-biotin
T2 chain: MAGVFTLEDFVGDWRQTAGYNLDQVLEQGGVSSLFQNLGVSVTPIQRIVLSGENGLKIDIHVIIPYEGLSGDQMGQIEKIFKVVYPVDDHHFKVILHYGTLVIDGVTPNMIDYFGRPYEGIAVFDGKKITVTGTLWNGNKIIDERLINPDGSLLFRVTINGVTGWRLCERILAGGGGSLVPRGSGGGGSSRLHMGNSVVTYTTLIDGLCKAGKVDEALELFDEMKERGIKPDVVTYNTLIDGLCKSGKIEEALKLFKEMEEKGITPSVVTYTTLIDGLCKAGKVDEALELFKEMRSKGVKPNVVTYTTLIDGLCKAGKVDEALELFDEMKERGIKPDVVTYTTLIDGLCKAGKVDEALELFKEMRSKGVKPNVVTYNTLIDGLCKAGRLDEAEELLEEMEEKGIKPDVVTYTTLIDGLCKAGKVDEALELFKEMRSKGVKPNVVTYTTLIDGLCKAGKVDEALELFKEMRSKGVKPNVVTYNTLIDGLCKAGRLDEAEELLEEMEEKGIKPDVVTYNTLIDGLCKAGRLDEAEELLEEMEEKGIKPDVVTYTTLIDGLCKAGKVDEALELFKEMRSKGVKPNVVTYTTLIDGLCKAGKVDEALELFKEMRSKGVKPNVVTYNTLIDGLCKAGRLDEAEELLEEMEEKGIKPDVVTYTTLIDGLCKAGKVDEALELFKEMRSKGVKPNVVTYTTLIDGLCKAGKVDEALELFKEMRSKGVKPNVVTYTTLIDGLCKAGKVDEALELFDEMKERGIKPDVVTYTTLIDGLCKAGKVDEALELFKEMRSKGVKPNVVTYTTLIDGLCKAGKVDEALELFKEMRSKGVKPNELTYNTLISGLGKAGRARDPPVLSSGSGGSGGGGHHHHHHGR

NL_v2_PPR13 = biological target: T3, NL_v2_PPR13 (Artificial Sequence); conditions: tags: N-term luciferase, C-term 6xHis; label: 5'-biotin
T3 chain: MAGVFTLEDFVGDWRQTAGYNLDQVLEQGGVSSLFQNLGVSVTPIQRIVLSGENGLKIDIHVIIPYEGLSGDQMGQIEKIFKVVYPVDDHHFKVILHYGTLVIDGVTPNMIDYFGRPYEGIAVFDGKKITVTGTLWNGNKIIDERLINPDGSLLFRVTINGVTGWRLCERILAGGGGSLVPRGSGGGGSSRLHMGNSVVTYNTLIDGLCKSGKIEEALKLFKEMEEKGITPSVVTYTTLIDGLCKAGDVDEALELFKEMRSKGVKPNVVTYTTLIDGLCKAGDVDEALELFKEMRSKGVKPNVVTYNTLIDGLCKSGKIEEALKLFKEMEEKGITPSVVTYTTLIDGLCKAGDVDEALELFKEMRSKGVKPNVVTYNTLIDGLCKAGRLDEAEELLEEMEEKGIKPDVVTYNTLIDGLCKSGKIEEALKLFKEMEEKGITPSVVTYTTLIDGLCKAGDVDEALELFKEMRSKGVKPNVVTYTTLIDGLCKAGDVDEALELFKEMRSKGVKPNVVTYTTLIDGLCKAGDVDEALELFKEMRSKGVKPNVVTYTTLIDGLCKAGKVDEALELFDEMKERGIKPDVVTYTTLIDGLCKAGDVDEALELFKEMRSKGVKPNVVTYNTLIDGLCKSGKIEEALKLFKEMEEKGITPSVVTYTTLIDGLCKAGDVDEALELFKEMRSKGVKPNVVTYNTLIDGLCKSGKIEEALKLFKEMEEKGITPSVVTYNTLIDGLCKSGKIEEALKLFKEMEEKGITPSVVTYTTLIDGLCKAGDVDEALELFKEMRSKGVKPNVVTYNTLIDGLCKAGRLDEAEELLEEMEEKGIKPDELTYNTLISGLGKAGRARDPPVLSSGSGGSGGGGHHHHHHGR

v3.1_PPR13 = biological target: T4, v3.1_PPR13 (Artificial Sequence); conditions: tags: luciferase fusion; label: 5'-biotin
T4 chain: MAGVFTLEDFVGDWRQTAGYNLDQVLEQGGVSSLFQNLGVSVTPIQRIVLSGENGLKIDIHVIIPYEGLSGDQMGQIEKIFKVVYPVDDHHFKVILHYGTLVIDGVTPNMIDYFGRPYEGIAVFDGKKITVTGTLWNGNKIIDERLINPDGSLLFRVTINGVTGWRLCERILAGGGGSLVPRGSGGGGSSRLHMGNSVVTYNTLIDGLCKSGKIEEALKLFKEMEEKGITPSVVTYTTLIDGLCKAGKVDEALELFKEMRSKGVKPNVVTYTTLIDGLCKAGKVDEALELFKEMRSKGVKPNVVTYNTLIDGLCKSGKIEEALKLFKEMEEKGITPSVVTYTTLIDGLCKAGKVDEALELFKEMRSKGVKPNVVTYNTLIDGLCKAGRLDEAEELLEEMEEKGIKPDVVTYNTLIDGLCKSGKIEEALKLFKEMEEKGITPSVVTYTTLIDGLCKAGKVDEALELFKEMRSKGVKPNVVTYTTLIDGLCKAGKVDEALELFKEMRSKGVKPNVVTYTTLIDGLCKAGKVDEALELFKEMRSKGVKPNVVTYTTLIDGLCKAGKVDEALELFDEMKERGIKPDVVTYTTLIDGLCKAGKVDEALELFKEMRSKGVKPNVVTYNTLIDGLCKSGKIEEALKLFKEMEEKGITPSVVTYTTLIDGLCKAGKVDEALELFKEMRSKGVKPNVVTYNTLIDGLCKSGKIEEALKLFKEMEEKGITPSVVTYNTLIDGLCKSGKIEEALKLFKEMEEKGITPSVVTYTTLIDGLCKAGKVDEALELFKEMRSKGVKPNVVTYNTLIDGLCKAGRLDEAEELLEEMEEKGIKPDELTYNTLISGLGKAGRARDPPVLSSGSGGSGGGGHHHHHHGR

NL_v2_PPR14 = biological target: T5, NL_v2_PPR14 (Artificial Sequence); conditions: tags: N-term luciferase, C-term 6xHis; label: 5'-biotin
T5 chain: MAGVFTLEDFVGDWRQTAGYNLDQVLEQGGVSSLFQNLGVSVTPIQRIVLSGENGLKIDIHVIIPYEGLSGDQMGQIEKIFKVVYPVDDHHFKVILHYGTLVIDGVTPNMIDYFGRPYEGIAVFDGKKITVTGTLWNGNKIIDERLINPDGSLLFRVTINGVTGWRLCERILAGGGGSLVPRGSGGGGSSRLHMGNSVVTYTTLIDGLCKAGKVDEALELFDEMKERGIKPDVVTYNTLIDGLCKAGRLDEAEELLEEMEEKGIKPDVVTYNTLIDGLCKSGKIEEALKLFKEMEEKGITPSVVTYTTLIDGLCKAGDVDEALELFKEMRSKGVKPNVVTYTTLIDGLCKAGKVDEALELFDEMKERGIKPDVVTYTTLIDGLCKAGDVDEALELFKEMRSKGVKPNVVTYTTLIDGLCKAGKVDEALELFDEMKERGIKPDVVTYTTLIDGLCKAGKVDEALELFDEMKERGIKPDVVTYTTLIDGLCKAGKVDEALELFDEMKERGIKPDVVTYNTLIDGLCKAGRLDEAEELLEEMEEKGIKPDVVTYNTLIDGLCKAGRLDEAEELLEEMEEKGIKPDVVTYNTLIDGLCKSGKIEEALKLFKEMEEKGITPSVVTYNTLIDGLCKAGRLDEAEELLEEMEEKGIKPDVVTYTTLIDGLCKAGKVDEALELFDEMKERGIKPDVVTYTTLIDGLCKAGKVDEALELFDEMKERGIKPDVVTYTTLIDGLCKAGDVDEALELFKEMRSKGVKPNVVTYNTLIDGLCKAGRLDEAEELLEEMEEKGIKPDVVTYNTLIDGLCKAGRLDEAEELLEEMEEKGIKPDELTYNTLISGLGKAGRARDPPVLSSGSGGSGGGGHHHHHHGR

v3.1_PPR14 = biological target: T6, v3.1_PPR14 (Artificial Sequence); conditions: tags: luciferase fusion; label: 5'-biotin
T6 chain: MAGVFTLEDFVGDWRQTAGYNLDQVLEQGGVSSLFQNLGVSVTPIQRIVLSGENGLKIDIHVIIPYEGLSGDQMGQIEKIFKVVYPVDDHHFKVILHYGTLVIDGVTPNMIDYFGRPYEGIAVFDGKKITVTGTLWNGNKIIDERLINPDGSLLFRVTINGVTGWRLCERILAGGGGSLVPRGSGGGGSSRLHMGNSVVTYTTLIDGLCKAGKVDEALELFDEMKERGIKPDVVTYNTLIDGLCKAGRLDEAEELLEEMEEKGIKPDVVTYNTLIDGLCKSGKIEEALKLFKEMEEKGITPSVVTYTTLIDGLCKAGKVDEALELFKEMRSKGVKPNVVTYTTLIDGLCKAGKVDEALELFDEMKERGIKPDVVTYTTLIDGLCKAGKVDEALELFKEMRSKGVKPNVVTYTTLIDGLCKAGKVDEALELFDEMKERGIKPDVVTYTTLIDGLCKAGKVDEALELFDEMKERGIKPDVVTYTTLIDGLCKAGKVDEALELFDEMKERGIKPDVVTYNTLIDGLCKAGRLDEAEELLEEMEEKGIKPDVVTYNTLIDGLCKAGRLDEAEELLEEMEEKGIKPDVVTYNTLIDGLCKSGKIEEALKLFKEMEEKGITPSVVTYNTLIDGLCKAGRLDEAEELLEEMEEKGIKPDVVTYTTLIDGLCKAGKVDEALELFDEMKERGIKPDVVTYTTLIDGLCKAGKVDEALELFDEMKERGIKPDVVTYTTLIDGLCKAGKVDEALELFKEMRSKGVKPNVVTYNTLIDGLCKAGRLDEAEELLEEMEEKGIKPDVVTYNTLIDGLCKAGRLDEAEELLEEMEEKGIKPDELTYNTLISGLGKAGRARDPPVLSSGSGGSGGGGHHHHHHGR

Question: GACAUGCGCAGAUAAUUAAUAAGAAGACUG (ssRNA) [RNA_15] was tested. Which binding signal (NL_v2_PPR15) did it give?
Answer: 1.3e+07 luminescence

Question: And the binding signal (v3.1_PPR15)?
Answer: 3.2e+07 luminescence

Question: GACAUGCCAACAUCAAAGACACCAUGACUG (ssRNA) [RNA_13] was tested. Which binding signal (NL_v2_PPR13) did it give?
Answer: 2.3e+06 luminescence

Question: And the binding signal (v3.1_PPR13)?
Answer: 4e+07 luminescence

Question: Which binding signal (NL_v2_PPR14) does the source give for GACAUGCGUCAGAGGGUUCUGGAUUGACUG (ssRNA) [RNA_14] here?
Answer: 2.5e+07 luminescence

Question: What about the binding signal (v3.1_PPR14) of the same binder?
Answer: 2.5e+07 luminescence
